The term stoichiometry N denotes a count of units in the complex or per binding partner. Usually Km stands for the concentration of substrate that gives half-maximal velocity.

For 3 molecules, stoichiometry N and Km results are on record in paper PMC8169943.

The target of data set [1] is AdeS full cytoplasmic domain (HAMP-DHp-CA) (Acinetobacter baumannii). The experiment in a line: SEC.
Data set [2] shares this target. The experiment in a line: SAXS.
For data set [3], the target named is AdeS histidine kinase transmitter domain (DHp-CA) (Acinetobacter baumannii). The data set is described as follows: SEC.
Data set [4] shares this target. The experiment in a line: SAXS.
Substrate in the data set “purified protein”: Nc1ncnc2c1ncn2[C@@H]1O[C@H](COP(=O)(O)OP(=O)(O)OP(=O)(O)O)[C@@H](O)[C@H]1O
The data set is described as follows: purified protein. To be noted: autophosphorylation; hexameric cytoplasmic domain.

For the molecule “AdeS full cytoplasmic domain (HAMP-DHp-CA) (domain or fragment)”, the stoichiometry N in data set [1] and in data set [2] was 6 in each case.
“AdeS histidine kinase transmitter domain (DHp-CA) (domain or fragment)”: the stoichiometry N in data set [3] and in data set [4] was 2 in each case.

B1: AdeS cytoplasmic domain (HAMP-DHp-CA) (Acinetobacter baumannii) (protein)
chain: KRFIVPINFLAEAAKKISHGDLSARAYDNRIHFAEMSELLYNFNDMAQKLEVSVKNAQVWNAAIAHELRTPITILQGRLQGIIDGVFKPDEVLFKSLLNQVEVLSHLVEDLRTLSLVENQQLRLNYELFDFKAVVEKVLKAFEDRLDQAKLVPELDLTSTPVYCDRRRIEQVLIALIDNAIRYSHAGKLKISSEVVSQNWILKIEDEGPGIATEFQDDLFKPFFRLEESRNKEFGGTGLGLAVVHAIIVALKGTIQYSNQGSKSIFTIKISMNN
For the molecule B1, in the data set “purified protein”, the Km was determined as 5.25 ± 0.20 µM.
